Results published in PMC6701862 (Science (New York, N.Y.), 2019).

Molecular target: GluA2 subunit of native AMPA receptors (nAMPAR) from rat brain (rat (endogenous in rat brain), UniProt P19491)
Assay: cryo-EM structure

Sequence of GluA2 subunit of native AMPA receptors (nAMPAR) from rat brain (P19491 22-883): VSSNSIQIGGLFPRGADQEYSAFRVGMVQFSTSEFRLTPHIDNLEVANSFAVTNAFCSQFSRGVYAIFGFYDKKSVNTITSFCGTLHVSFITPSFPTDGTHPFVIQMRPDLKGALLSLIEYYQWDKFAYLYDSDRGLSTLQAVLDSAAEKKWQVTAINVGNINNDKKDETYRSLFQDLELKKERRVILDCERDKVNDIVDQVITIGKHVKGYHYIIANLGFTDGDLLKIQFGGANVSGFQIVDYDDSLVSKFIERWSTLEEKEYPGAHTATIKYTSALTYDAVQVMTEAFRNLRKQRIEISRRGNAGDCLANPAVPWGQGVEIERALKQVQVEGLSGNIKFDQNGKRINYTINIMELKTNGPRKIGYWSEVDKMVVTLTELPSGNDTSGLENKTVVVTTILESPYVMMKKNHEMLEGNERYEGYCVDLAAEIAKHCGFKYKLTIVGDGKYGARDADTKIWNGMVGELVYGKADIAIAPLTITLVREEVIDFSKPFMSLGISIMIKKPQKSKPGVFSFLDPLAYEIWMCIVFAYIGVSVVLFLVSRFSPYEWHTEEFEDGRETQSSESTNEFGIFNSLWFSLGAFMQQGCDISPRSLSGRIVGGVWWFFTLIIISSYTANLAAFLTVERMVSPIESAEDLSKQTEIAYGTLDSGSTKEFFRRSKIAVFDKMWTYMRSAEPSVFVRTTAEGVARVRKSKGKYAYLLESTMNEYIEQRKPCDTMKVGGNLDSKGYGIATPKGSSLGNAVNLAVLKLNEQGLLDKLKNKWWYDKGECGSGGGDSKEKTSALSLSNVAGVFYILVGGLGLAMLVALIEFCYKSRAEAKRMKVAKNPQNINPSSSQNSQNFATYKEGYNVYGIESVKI

binding result: binds
B1: 15F1 Fab, anti-GluA2 (Fab, V domains shown)
VH: QAQLKESGPGLVAPSQSLSITCTVSGFSLTNYGVHWVRQPPGKGLEWLGVIWAGGSTNYNSALMSRVSISKDNSKSQVFLKMNSLQTDDTVMYYCAREDYDYDWHFDVWGAGTTVTVSS
VL: EIQMTQTTSSLSASLGDRVTISCRASQDISNYLSWYQQKPDGTVKLLIYYTSRLHSGVPSRFSGSGSGIDYSLTINNLEQEDFATYFCQQGNTLPLTFGAGTKLELK
